Measured values reported in US20160289316A1 (STOWERS INSTITUTE FOR MEDICAL RESEARCH, published 2016).

Molecular target: T1, LRP6 G171V (human, UniProt O75197 32-1384, limits assumed)
T1 construct: The parent protein is printed inconsistently (LRP6 in the legend, LRP5 in the text); also called Human HBM G171V mutation; LRP5, G171V
T1 sequence (looked up): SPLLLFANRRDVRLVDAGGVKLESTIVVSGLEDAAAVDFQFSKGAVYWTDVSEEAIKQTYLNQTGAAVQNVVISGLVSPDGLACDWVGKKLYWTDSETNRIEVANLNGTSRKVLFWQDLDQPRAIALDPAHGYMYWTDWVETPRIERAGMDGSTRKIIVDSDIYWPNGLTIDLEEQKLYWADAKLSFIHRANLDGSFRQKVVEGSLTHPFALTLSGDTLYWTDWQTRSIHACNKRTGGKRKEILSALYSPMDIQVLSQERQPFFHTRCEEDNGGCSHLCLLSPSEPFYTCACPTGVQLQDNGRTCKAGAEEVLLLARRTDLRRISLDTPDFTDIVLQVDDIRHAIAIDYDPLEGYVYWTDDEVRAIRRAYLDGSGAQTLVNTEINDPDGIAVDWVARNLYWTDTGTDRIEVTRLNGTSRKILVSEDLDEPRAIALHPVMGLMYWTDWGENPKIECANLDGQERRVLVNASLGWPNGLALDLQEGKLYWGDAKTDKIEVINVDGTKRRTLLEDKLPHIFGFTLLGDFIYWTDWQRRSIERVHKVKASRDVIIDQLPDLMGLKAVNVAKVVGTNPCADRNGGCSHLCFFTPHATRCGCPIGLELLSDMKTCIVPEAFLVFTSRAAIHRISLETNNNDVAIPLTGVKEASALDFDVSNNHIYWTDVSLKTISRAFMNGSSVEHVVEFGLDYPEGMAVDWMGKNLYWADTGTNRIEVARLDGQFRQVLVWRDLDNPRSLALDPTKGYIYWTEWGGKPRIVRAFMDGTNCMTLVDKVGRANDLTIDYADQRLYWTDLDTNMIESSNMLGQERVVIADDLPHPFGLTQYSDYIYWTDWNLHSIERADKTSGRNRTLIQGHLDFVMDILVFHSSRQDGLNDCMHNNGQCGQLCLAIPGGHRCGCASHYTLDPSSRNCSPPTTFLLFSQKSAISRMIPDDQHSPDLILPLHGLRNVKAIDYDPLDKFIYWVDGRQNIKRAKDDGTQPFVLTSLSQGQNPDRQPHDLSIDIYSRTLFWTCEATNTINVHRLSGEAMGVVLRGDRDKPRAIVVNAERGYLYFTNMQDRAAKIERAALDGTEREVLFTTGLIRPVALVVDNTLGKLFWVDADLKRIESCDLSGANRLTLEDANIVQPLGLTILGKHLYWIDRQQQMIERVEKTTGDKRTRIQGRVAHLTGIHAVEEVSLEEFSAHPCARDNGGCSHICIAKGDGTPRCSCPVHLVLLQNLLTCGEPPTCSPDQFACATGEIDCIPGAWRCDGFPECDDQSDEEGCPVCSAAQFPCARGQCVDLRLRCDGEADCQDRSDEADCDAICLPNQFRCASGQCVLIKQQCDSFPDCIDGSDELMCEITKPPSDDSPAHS
Assay: immunoprecipitation, anti-Flag M2 affinity gel (FIG. 2H)
Procedure: A […] dish of 293 cells was transfected with 10 ug of LRP5, LRP6, SOST or Wise, using Fugene 6 (Roche). pCS2+LRP5 contains the extracellular portion of the human sequence between EcoRI-Xbal. pCS2+SOST contain the whole reading frame and has been modified at the 3′ end to have a kozak sequence and Flag tag, Wise-Flag, and LRP6-IgG-FC are described in Itasaki et al. (2003). pCS2+ with an Ig-FC insert is the vector control. The supernatants were collected on day 1, day 2, and day 3. The supernatant was concentrated through an appropriate molecular weight Amicon ultra (Millipore) spin column. A protein concentration was taken on the concentrated supernatants, and 50 ug of each sample was used in each IP. Anti-Flag M2 affinity gel (Sigma) was used for the Wise and SOSTIPs.

B1: SOST-Flag (ligand, mouse, UniProt Q99P68 24-211, looked up)
chain: QGWQAFRNDATEVIPGLGEYPEPPPENNQTMNRAENGGRPPHHPYDAKDVSEYSCRELHYTRFLTDGPCRSAKPVTELVCSGQCGPARLLPNAIGRVKWWRPNGPDFRCIPDRYRAQRVQLLCPGGAAPRSRKVRLVASCKCKRLTRFHNQSELKDFGPETARPQKGRKPRPGARGAKANQAELENAY
notes: mature; This entry was not used because neither its species nor its tie to the assay construct is stated; also called pCS2+SOST; not shown: Flag tag at the 3' end of the reading frame
  binding result: no binding
